PMC10223884, “Oligosaccharide Ligands of Galectin-4 and Its Subunits: Multivalency Scores Highly” (Molecules, 2023)
Several values for one entry are separate records, joined by “and”; a condition that tells them apart may be missing. Equal values may be shown once. Each block holds one molecule with its values, some of them ahead of it.

Experiments:
[1] = target: Gal-4NL; design: method as in PMID 33968903; settings: ITC; cited from earlier work
[2] = target: T1, Gal-4NL (Homo sapiens, UniProt P56470); assay: competitive ELISA, inhibition of binding of Gal-4NL subunit to immobilized ASF
T1 construct: designated as Gal-4NL (aa 1-160), and Gal-4CL (aa 169-323), respectively; made in house; host or cells: E. coli Rosetta (DE3) pLysS
T1 sequence (P56470 1-160): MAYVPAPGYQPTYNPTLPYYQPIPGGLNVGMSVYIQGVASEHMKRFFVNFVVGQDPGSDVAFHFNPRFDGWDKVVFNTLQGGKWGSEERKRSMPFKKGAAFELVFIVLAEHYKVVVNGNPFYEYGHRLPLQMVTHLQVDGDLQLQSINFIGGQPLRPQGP
Method: (§1) To design the ELISA method, we first examined the direct binding of the whole Gal-4, Gal-4NL, and Gal-4-CL to standard glycoprotein asialofetuin (ASF, MW 48.4 kDa), which carries up to nine LacNAc epitopes. The ASF was immobilized by hydrophobic interaction in microtiter-plate wells, and the binding of increasing concentrations of Gal-4 proteins was quantified by colorimetric immunodetection using horseradish peroxidase conjugated to an anti-His-tag antibody. The apparent dissociation constants (KD) were calculated from the non-linear regression of the binding curves (Figure 3). […] While for the Gal-4 ELISA measurement we used the concentration of Gal-4 of 2.5 μM, for both subunits, it was 25 μM. […] The Gal-4 proteins were incubated with increasing concentrations of the respective inhibitors, and the concentration-dependent inhibition of the binding to the immobilized ASF was quantified using spectrophotometric colorimetric immunodetection (HRP-conjugated anti-His-tag antibody). The respective half-maximal inhibition constants (IC50) were calculated from the non-linear regression of the sigmoidal curves (Figure 3), and they are shown in Table 2 and Table 3.
(§2) Each incubation step was followed by washing the wells with 3 × 250 µL phosphate-buffered saline (PBS) containing 0.05% Tween® 20. In total, 0.1 µM ASF in PBS (50 µL/well) was coated onto microtiter plates (Nunc Immuno Sorb, ThermoFisher Scientific, Waltham, MA, USA) overnight. After blocking the wells with 2 mg/mL bovine serum albumin (BSA) in PBS buffer (250 µL/well, 1 h), serial dilutions of the inhibitors in PBS buffer containing 2 mM EDTA (EPBS) were incubated with Gal-4 (2.5 µM final dimer concentration) or its subunits, Gal-4CL and Gal-4NL (25 µM final monomer concentration) for 2 h (50 µL/well). The residual bound galectin was labeled with an anti-His-antibody conjugated with horseradish peroxidase (HRP) (Santa Cruz Biotechnology, Heidelberg, Germany; 1:999 dilution in PBS). The colorimetric reaction with TMB One substrate solution (Kem-En-Tec, Taastrup, Denmark; 50 µL/well) was stopped with 3 M hydrochloric acid (HCl) (50 µL/well) and quantified spectrophotometrically at 450 nm (Sunrise; Tecan Group Ltd., Männedorf, Switzerland). The values of half-maximal inhibitory concentrations (IC50) were calculated by non-linear regression (dose–response inhibition-variable slope) of sigmoidal curves from a minimum of three independent experiments using GraphPad Prism 8.4.3 (GraphPad Software, San Diego, CA, USA).

[3] = target: T2, Gal-4CL (Homo sapiens, UniProt P56470); assay: competitive ELISA, inhibition of binding of Gal-4CL subunit to immobilized ASF
T2 construct: designated as Gal-4NL (aa 1-160), and Gal-4CL (aa 169-323), respectively; made in house; host or cells: E. coli Rosetta (DE3) pLysS
T2 sequence (P56470 169-323): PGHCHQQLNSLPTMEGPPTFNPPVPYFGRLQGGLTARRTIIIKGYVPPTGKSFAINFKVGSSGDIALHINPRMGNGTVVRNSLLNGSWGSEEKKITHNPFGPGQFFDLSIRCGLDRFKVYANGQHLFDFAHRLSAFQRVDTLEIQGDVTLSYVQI
Method: as §1, §2

[4] = target: T3, Gal-4 (Homo sapiens, UniProt P56470); assay: competitive ELISA, inhibition of binding of whole Gal-4 to immobilized ASF
T3 construct: made in house; host or cells: Escherichia coli Rosetta (DE3) pLysS
T3 sequence (P56470 1-323): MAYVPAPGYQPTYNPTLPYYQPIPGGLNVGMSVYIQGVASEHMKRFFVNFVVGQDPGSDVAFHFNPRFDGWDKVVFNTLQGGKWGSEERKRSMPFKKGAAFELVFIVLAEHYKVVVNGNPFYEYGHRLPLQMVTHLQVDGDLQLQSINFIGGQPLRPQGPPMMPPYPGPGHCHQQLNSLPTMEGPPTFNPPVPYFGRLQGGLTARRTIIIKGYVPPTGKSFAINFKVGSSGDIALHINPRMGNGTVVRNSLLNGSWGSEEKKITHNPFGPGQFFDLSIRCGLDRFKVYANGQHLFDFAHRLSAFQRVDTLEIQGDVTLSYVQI
Method: as §1, §2

[5] = target: T1, Gal-4NL; assay: direct ELISA, binding of Gal-4NL to immobilized ASF; settings: read-out: apparent KD
Method: (§3) To design the ELISA method, we first examined the direct binding of the whole Gal-4, Gal-4NL, and Gal-4-CL to standard glycoprotein asialofetuin (ASF, MW 48.4 kDa), which carries up to nine LacNAc epitopes. The ASF was immobilized by hydrophobic interaction in microtiter-plate wells, and the binding of increasing concentrations of Gal-4 proteins was quantified by colorimetric immunodetection using horseradish peroxidase conjugated to an anti-His-tag antibody. The apparent dissociation constants (KD) were calculated from the non-linear regression of the binding curves (Figure 3). […] The Gal-4 proteins were incubated with increasing concentrations of the respective inhibitors, and the concentration-dependent inhibition of the binding to the immobilized ASF was quantified using spectrophotometric colorimetric immunodetection (HRP-conjugated anti-His-tag antibody). The respective half-maximal inhibition constants (IC50) were calculated from the non-linear regression of the sigmoidal curves (Figure 3), and they are shown in Table 2 and Table 3.
(§4) The apparent dissociation constant (KD) of binding of the whole Gal-4 or its subunits to ASF was determined using direct enzyme-linked immunosorbent assay (ELISA), with washing steps as specified above. […] Residual galectins bound to the wells were labeled with anti-His-antibody conjugated with HRP, and evaluated as above.

[6] = target: T2, Gal-4CL; assay: direct ELISA, binding of Gal-4CL to immobilized ASF; settings: read-out: apparent KD
Method: as §3, §4

[7] = target: T3, Gal-4; assay: direct ELISA, binding of whole Gal-4 to immobilized ASF; settings: read-out: apparent KD
Method: as §3, §4

[8] = target: T4, asialofetuin (standard glycoprotein, MW 48.4 kDa) (UniProt P12763 19-359, glycoprotein without sialic acid; carries up to nine LacNAc epitopes); assay: ELISA; direct ELISA; ASF (0.1 µM in PBS) coated on microtiter plate overnight, blocked with BSA; increasing concentrations of Gal-4 or its subunits, 2 h; detected with HRP-conjugated anti-His antibody; apparent KD from non-linear regression; settings: both partners purified
T4 construct: Asialofetuin (desialylated fetuin), MW 48.4 kDa; Commercial asialofetuin is commonly from fetal calf serum; also called ASF
T4 sequence (looked up): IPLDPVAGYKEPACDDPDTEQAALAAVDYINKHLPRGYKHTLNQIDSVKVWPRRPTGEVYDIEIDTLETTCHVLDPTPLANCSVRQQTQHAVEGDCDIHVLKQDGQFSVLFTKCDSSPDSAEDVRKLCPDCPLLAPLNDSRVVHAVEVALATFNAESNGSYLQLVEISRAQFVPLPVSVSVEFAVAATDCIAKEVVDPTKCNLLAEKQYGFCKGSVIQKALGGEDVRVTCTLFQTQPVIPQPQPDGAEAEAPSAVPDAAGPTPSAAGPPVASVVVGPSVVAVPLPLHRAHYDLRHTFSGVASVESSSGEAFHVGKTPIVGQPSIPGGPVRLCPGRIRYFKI

[9] = target: the molecule itself; assay: dynamic light scattering; Gal-4 and its subunits at 25 µM, 25 °C, Zetasizer Nano S90; size distribution by intensity and by volume
[10] = target: T5, lactosyl-decorated neo-glycoprotein 12 (human serum albumin carrier) (human, UniProt P02768 25-609, 9.6 lactosyl residues (MALDI-TOF, 72,151 Da) attached by a thiourea linker and diethyl-squarate linkage; sites not stated); assay: BLI; His-tagged galectins (2 µg/mL, PBS with 0.05% Tween-20) immobilised on Ni-NTA biosensors; serially diluted neo-glycoprotein 12 in solution; 25 °C, 800 rpm; steady-state analysis; settings: both partners purified
T5 construct: Human serum albumin, carrier of the synthetic lactosyl ligands; source: HSA coupled with squarate monoamide ester 11 (tetraborate buffer pH 9.0, 72 h), washed with water by ultracentrifugation

[11] = dynamic light scattering (DLS) of Gal-4 and its subunits in solution; assay type: physicochemical; settings: 25 µM, 25 °C
Method: Therefore, we decided to obtain more insights into the potential aggregation behavior of the Gal-4 subunits in solution, which, theoretically, might have contributed to the multivalency effect, even with the monovalent Gal-4 subunits. The hydrodynamic radii of the whole Gal-4 and its subunits in the concentrations used in the ELISA assay (25 µM) were assessed using dynamic light scattering (DLS). This method provided information about the size distribution of the particles in the samples (Table 4). […] Therefore, the larger particles seemed to be more abundant in these distribution diagrams because light scattering is proportional to the sixth power of the scattering-matter diameter. To avoid misinterpretation, we also present the volume-weighed size distributions in Table 4, which highlight the most abundant populations of particles. These values indicate that in the cases of the whole Gal-4 and Gal-4CL, the large aggregates at 1200 nm and 400 nm, respectively, can be neglected (the volume-weighted size distributions accounted for 9 and 7 nm, respectively). The whole Gal-4 formed the most abundant particles, of 11 nm, which was similar to Gal-4CL with 8 nm particles. In the case of Gal-4NL, the solution was more polydisperse, and two significant populations were observed. The first population, of 1.3 nm, probably represented the individual Gal-4NL subunits, whereas the slightly larger population of 16 nm belonged to the aggregated species.
The hydrodynamic diameter of the Gal-4 and its subunits (25 μM) was measured by dynamic light scattering (DLS) using Zetasizer Nano S90 (Malvern Instruments Ltd., Malvern, UK) at 25 °C. The light scattered at θ = 173° from the incident light was fitted to an autocorrelation function using the method of cumulants (Malvern Instruments Ltd., Malvern, UK). The hydrodynamic diameters were determined from five independent repetitions (10–50 runs) in Malvern disposable plastic cuvettes. The particle-size distribution was determined by analyzing the multimodal peak by intensity and volume.

T5 sequence (P02768 25-609): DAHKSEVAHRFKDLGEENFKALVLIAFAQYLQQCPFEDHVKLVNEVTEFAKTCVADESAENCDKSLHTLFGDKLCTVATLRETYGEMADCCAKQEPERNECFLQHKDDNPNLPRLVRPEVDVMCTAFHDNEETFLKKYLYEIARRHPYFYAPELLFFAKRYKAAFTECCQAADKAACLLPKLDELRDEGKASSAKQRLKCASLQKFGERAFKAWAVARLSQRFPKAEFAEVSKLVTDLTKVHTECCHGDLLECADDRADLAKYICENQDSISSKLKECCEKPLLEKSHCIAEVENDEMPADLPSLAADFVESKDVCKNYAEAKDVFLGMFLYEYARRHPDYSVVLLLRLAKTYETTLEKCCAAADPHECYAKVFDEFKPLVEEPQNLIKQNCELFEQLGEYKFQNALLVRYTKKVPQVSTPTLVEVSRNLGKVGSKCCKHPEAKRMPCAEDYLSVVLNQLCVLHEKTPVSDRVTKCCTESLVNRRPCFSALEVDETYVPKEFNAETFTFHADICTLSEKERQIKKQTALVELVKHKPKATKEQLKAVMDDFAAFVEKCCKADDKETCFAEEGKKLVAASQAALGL

Molecule: asialofetuin [ASF]
Kd [5]: 38 ± 3 µM
Kd [6]: 19 ± 2 µM
Kd [7]: 3.3 ± 1.1 µM

B2: C-terminal subunit of Gal-4 with 10 linker residues (Gal-4CL, aa 169-323) (domain or fragment, human, UniProt P56470 169-323, looked up)
chain: T2 sequence (P56470 169-323)
notes: Galectin-4, human, C-terminal CRD (aa 179-323) with 10 further residues of the inter-domain linker at the N-terminus (aa 169-323); made by PCR from the Gal-4 plasmid, NdeI/XhoI; not shown: His6, N-terminal, kept
Kd [8]: 19 ± 2 µM
binding result [9]: binds

B4: Gal-4NL: N-terminal subunit of Gal-4 (aa 1-160) with 10-amino-acid linker, His-tagged (protein)
chain: T1 sequence (P56470 1-160)
modifications: left off: His6, N-terminal, kept
notes: N-terminal subunit of Gal-4 (aa 1-160) with 10-amino-acid linker, His-tagged
Intensity-Weighed Size Distribution Area (first population) [11]: 13%
Intensity-Weighed Size Distribution Area (second population) [11]: 50%
Intensity-Weighed Size Distribution Size (first population) [11]: 1.3 nm and 1.3 ± 0.3 nm
Intensity-Weighed Size Distribution Size (second population) [11]: 16 nm and 16 ± 7 nm
PDI, polydispersity index [11]: 0.4
Volume-Weighted Size Distribution Area [11]: 100%
Volume-Weighted Size Distribution Size [11]: 3 ± 1 nm

Second part, led by results:

rp Gal-4NL, relative potency (IC50 (lactose)/IC50 (ligand)) ([2]; Gal-4NL): 11
IC50 ([2]; competitive ELISA, Gal-4NL 25 µM, immobilized ASF): 260 ± 10 µM
rp Gal-4CL, relative potency (IC50 (lactose)/IC50 (ligand)) ([3]; Gal-4CL): 28
IC50 ([3]; competitive ELISA, Gal-4CL 25 µM, immobilized ASF): 300 ± 30 µM
IC50 ([4]; competitive ELISA, Gal-4 2.5 µM, immobilized ASF): 80 ± 30 µM
rp, relative potency (IC50 (lactose)/IC50 (ligand)) ([4]; whole Gal-4): 31
Molecule: C[C@@H]1O[C@@H](O[C@H]2[C@H](O[C@H]3[C@H](O)[C@@H](O)C(O)O[C@@H]3CO)O[C@H](CO)[C@H](O)[C@@H]2O[C@H]2O[C@H](CO)[C@H](O)[C@H](O)[C@H]2O)[C@@H](O)[C@H](O)[C@@H]1O (stereo partly shown) [blood-group antigen B (6), blood-group antigen B type 6]
Kd [1]: 51 µM

Kd [8]: 3.3 ± 1.1 µM
B1: Galectin-4 (whole, His6-tagged construct of human Gal-4) (natural protein, UniProt P56470 1-323, looked up)
chain: T3 sequence (P56470 1-323)
notes: Galectin-4, human, whole protein (two CRDs joined by the linker peptide); also called whole Gal-4; total Gal-4; not shown: His6, N-terminal, kept

Kd [8]: 38 ± 3 µM
Kd [10]: 1000 ± 200 nM
B3: N-terminal subunit of Gal-4 with 10 linker residues (Gal-4NL, aa 1-160) (domain or fragment, human, UniProt P56470 1-160, looked up)
chain: T1 sequence (P56470 1-160)
notes: Galectin-4, human, N-terminal CRD (aa 1-150) with 10 further residues of the inter-domain linker at the C-terminus (aa 1-160); made by PCR from the Gal-4 plasmid, NdeI/XhoI; not shown: His6, N-terminal, kept
